22 molecules from patent US20200262867A1 (WNTRX PHARMACEUTICALS, published 2020) can be followed below.

*1 amine or outer side, *2 acyl side, *3 side chain or, on linkers, in order; H or OH if unused. Bridges are numbered along the chain shown (N, C = ends). Where no end group is shown, it is not given here. [ ]: non-standard residue; d: D form. Azetidine3carboxylic = O=C(C1CN([*:1])C1)[*:2]; dimethyl = N-terminal dimethyl modification; Phe(4-Cl) = N[C@@H](Cc1ccc(Cl)cc1)C(=O)O; 2Nal = N[C@@H](Cc1ccc2ccccc2c1)C(=O)O; d2Nal = N[C@H](Cc1ccc2ccccc2c1)C(=O)O; NMeCha = CN[C@@H](CC1CCCCC1)C(=O)O; NMeR = CN[C@@H](CCCNC(=N)N)C(=O)O; hArg = N=C(N)NCCCC[C@H](N)C(=O)O; NMeQ = CN[C@@H](CCC(N)=O)C(=O)O; Cha = N[C@@H](CC1CCCCC1)C(=O)O; dCha = N[C@H](CC1CCCCC1)C(=O)O; AllylGly = C=CC[C@H](N)C(=O)O; αMeL = CC(C)C[C@](C)(N)C(=O)O; Cba = N[C@@H](CC1CCC1)C(=O)O; S5 = C=CCCC[C@](C)(N)C(=O)O; Nle = CCCC[C@H](N)C(=O)O; Ac4c = NC1(C(=O)O)CCC1

To fix the notation:
T1: β-catenin (UniProt P35222 1-781, limits assumed)
T1 construct: also called beta-catenin
T1 sequence (looked up): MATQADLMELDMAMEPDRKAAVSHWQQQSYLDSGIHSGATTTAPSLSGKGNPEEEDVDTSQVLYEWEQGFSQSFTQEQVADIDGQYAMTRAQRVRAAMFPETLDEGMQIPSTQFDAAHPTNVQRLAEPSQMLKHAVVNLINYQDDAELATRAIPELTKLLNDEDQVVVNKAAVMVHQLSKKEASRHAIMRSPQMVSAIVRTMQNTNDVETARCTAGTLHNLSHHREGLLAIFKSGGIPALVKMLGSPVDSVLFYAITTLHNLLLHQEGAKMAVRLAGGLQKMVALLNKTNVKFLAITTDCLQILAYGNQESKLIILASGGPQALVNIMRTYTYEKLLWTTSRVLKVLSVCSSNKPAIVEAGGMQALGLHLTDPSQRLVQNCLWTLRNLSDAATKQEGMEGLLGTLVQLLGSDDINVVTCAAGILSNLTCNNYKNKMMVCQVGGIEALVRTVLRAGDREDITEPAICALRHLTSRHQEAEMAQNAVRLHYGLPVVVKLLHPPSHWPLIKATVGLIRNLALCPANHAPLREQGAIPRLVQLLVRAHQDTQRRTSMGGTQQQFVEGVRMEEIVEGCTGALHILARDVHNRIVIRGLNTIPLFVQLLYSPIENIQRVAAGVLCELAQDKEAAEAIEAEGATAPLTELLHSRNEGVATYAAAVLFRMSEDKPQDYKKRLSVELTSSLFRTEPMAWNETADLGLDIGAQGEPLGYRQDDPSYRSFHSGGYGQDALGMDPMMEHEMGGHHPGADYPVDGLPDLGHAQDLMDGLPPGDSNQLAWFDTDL

B1: SEQ ID NO: 183 (peptide)
peptide: Ac-H[hArg]QRSLQTLR[S5]IQR[S5][Cha][2Nal]-NH2
modifications: staple 11-15
SMILES: CC[C@H](C)[C@@H]1NC(=O)[C@@](C)(NC(=O)[C@H](CCCNC(=N)N)NC(=O)[C@H](CC(C)C)NC(=O)[C@@H](NC(=O)[C@H](CCC(N)=O)NC(=O)[C@H](CC(C)C)NC(=O)[C@H](CO)NC(=O)[C@H](CCCNC(=N)N)NC(=O)[C@H](CCC(N)=O)NC(=O)[C@H](CCCCNC(=N)N)NC(=O)[C@H](Cc2c[nH]cn2)NC(C)=O)[C@@H](C)O)CCCC=CCCC[C@@](C)(C(=O)N[C@@H](CC2CCCCC2)C(=O)N[C@@H](Cc2ccc3ccccc3c2)C(N)=O)NC(=O)[C@H](CCCNC(=N)N)NC(=O)[C@H](CCC(N)=O)NC1=O
B2: SEQ ID NO: 158 (peptide)
peptide: Ac-H[NMeR]QRSLQTLR[S5]IQR[S5][Cba][2Nal]-NH2
modifications: staple 11-15; not fully specified; printed as H(R-Me)QRSLQTLRXIQRX(CBA)(2-Nal), X/X stapled, (S) α-methyl, N-terminal Ac, C-terminal NH2
B3: SEQ ID NO: 184 (peptide)
peptide: Ac-HRQ[NMeR]SLQTLR[S5]IQR[S5][Cha][2Nal]-NH2
modifications: staple 11-15
SMILES: CC[C@H](C)[C@@H]1NC(=O)[C@@](C)(NC(=O)[C@H](CCCNC(=N)N)NC(=O)[C@H](CC(C)C)NC(=O)[C@@H](NC(=O)[C@H](CCC(N)=O)NC(=O)[C@H](CC(C)C)NC(=O)[C@H](CO)NC(=O)[C@H](CCCNC(=N)N)N(C)C(=O)[C@H](CCC(N)=O)NC(=O)[C@H](CCCNC(=N)N)NC(=O)[C@H](Cc2c[nH]cn2)NC(C)=O)[C@@H](C)O)CCCC=CCCC[C@@](C)(C(=O)N[C@@H](CC2CCCCC2)C(=O)N[C@@H](Cc2ccc3ccccc3c2)C(N)=O)NC(=O)[C@H](CCCNC(=N)N)NC(=O)[C@H](CCC(N)=O)NC1=O
B4: SEQ ID NO: 178 (peptide)
peptide: Ac-HRQRSLQTLR[S5]IQR[S5][Azetidine3carboxylic][2Nal]-NH2
modifications: staple 11-15
SMILES: CC[C@H](C)[C@@H]1NC(=O)[C@@](C)(NC(=O)[C@H](CCCNC(=N)N)NC(=O)[C@H](CC(C)C)NC(=O)[C@@H](NC(=O)[C@H](CCC(N)=O)NC(=O)[C@H](CC(C)C)NC(=O)[C@H](CO)NC(=O)[C@H](CCCNC(=N)N)NC(=O)[C@H](CCC(N)=O)NC(=O)[C@H](CCCNC(=N)N)NC(=O)[C@H](Cc2c[nH]cn2)NC(C)=O)[C@@H](C)O)CCCC=CCCC[C@@](C)(C(=O)N2CC(C(=O)N[C@@H](Cc3ccc4ccccc4c3)C(N)=O)C2)NC(=O)[C@H](CCCNC(=N)N)NC(=O)[C@H](CCC(N)=O)NC1=O
B5: SEQ ID NO: 188 (peptide)
peptide: Ac-HRQRSLQTLR[S5]IQR[S5][Cha][d2Nal]-NH2
modifications: staple 11-15
SMILES: CC[C@H](C)[C@@H]1NC(=O)[C@@](C)(NC(=O)[C@H](CCCNC(=N)N)NC(=O)[C@H](CC(C)C)NC(=O)[C@@H](NC(=O)[C@H](CCC(N)=O)NC(=O)[C@H](CC(C)C)NC(=O)[C@H](CO)NC(=O)[C@H](CCCNC(=N)N)NC(=O)[C@H](CCC(N)=O)NC(=O)[C@H](CCCNC(=N)N)NC(=O)[C@H](Cc2c[nH]cn2)NC(C)=O)[C@@H](C)O)CCCC=CCCC[C@@](C)(C(=O)N[C@@H](CC2CCCCC2)C(=O)N[C@H](Cc2ccc3ccccc3c2)C(N)=O)NC(=O)[C@H](CCCNC(=N)N)NC(=O)[C@H](CCC(N)=O)NC1=O
B6: SEQ ID NO: 174 (peptide)
peptide: Ac-LQTLR[S5]IQR[S5][NMeCha][2Nal]-NH2
modifications: staple 6-10; not fully specified (residue 2); printed as L(N-methylQ)TLRXIQRX(N-methylCha)(2-Nal); also: N-methylQ at 2: D or L (both stated)
B7: SEQ ID NO: 173 (peptide)
peptide: Ac-LQTLR[S5]IQR[S5][dCha][2Nal]-NH2
modifications: staple 6-10; not fully specified (residue 2); printed as L(N-methylQ)TLRXIQRXD(Cha)(2-Nal); also: N-methylQ at 2: D or L (both stated)
B8: SEQ ID NO: 123 (peptide)
peptide: Ac-L[NMeQ]T[Cha]R[S5]IQR[S5][Cba][2Nal]-NH2
modifications: staple 6-10; not fully specified; printed as L(N-methylQ)T(Cha)RXIQRX(CBA)(2-Nal)
B9: SEQ ID NO: 195 (peptide)
peptide: Ac-L[NMeQ]TLR[S5]IQR[S5][Phe(4-Cl)][2Nal]-NH2
modifications: staple 6-10; not fully specified; printed as L(N-methylQ)TLRXIQRX(4-Cl-Ph)(2-Nal), X/X stapled, (S) α-methyl, N-terminal Ac, C-terminal NH2
B10: SEQ ID NO: 129 (peptide)
peptide: Ac-L[NMeQ]TLR[S5][Cba]QR[S5][Cba][2Nal]-NH2
modifications: staple 6-10; not fully specified; printed as L(N-methylQ)TLRX(CBA)QRX(CBA)(2-Nal)
B11: SEQ ID NO: 172 (peptide)
peptide: Ac-LQTLR[S5]IQR[S5][αMeL][2Nal]-NH2
modifications: staple 6-10; not fully specified (residue 2); printed as L(N-methylQ)TLRXIQRX(α-methylL)(2-Nal); also: N-methylQ at 2: D or L (both stated)
B12: SEQ ID NO: 189 (peptide)
peptide: Ac-HRQRSLQTL[NMeR][S5]IQR[S5][Cha][2Nal]-NH2
modifications: staple 11-15
SMILES: CC[C@H](C)[C@@H]1NC(=O)[C@@](C)(NC(=O)[C@H](CCCNC(=N)N)N(C)C(=O)[C@H](CC(C)C)NC(=O)[C@@H](NC(=O)[C@H](CCC(N)=O)NC(=O)[C@H](CC(C)C)NC(=O)[C@H](CO)NC(=O)[C@H](CCCNC(=N)N)NC(=O)[C@H](CCC(N)=O)NC(=O)[C@H](CCCNC(=N)N)NC(=O)[C@H](Cc2c[nH]cn2)NC(C)=O)[C@@H](C)O)CCCC=CCCC[C@@](C)(C(=O)N[C@@H](CC2CCCCC2)C(=O)N[C@@H](Cc2ccc3ccccc3c2)C(N)=O)NC(=O)[C@H](CCCNC(=N)N)NC(=O)[C@H](CCC(N)=O)NC1=O

The target in the assay is T1, β-catenin. Description: ALPHA Screen (BCL9/β-catenin).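 Further: bead proximity readout with the polypeptide linked to donor beads and β-catenin fixed on acceptor beads, their binding bringing the beads close enough to emit signal.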
Source text: In this assay, a polypeptide is conjugated to a donor bead and its target protein (i.e., β-catenin) is attached to an acceptor bead. When the two beads are in proximity due to the binding of the polypeptide to the target protein, a signal is generated and the binding affinity of the polypeptide can be quantitatively calculated. The assay may be conducted in the presence or absence of an unconjugated control polypeptide.
dimethyl-L[NMeQ]TLR[S5]IQR[S5][Cba][2Nal]-NH2 (staple 6-10; not fully specified) [SEQ ID NO: 144] registered a half-inhibitory concentration (IC50) of 2130 nM.

The molecule B1 came in with an IC50 of 119 nM.

As to Ac-HR[NMeQ]RSL[NMeQ]TLR[S5]IQR[S5][Cba][2Nal]-NH2 (staple 11-15) [SEQ ID NO: 155], the midpoint of inhibition, the IC50, lay at 281 nM.

For the molecule B2, the IC50 turned out to be 383 nM.

B3: the IC50 stood at 195 nM.

Molecule Ac-RERSLQTLR[S5]IQR[S5]L[2Nal]-NH2 (staple 10-14; not fully specified; printed as RERSLQTLRXIQRXL(2-Nal)) [SEQ ID NO: 5] yielded a half-maximal inhibitory concentration (IC50) of 1450 nM.

On to Ac-QERSLQTLR[S5]IQR[S5]L[2Nal]-NH2 (staple 10-14; not fully specified; printed as QERSLQTLRXIQRXL(2-Nal)) [SEQ ID NO: 10], for which the concentration for half-maximal inhibition (IC50) worked out at 4200 nM.

In the case of Ac-RERSLQTLR[S5]IQR[S5][Cba][2Nal]-NH2 (staple 10-14; not fully specified; printed as RERSLQTLRXIQRX(CBA)(2-Nal)) [SEQ ID NO: 13], half-maximal inhibition (IC50) required 844 nM. This IC50 is about 5-fold lower than that of the molecule before.

{4‑biphenyl acetic acid}-L[NMeQ]TLR[S5]IQR[S5][Cba][2Nal]-NH2 (staple 6-10; not fully specified) [SEQ ID NO: 143] showed an IC50 of 6660 nM.

The molecule Ac-HRQRSLQTLR[S5]IQR[S5][Ac4c][2Nal]-NH2 (staple 11-15) [SEQ ID NO: 176] had an IC50 of 236 nM.

B4: half-maximal inhibition (IC50) required 563 nM.

B5 returned an IC50 of 387 nM.

In turn, B6 registered an IC50 of 6880 nM. Compared with the last molecule, the IC50 is about 18-fold higher.

Turning to Ac-HRQRSL[NMeQ]TLR[S5]IQR[S5][Cba][2Nal]-NH2 (staple 11-15) [SEQ ID NO: 153], the midpoint of inhibition, the IC50, lay at 261 nM.

The molecule B7 showed a half-maximal inhibitory concentration (IC50) of 14700 nM.

Regarding B8, the IC50 is 3620 nM.

B9 yielded an IC50 of 13000 nM.

The molecule B10 came in with an IC50 of 2060 nM.

Take Ac-LQTLR[S5]IQR[S5][AllylGly][2Nal]-NH2 (staple 6-10) [SEQ ID NO: 175]: the half-inhibitory concentration (IC50) was found to be 9710 nM. This IC50 lies about 4.7-fold higher than the previous one.

Consider B11, for which the IC50 was found to be 8000 nM.

As for B12, half-maximal inhibition (IC50) was put at 247 nM.

In turn, LQTLR[Nle]IQR[Nle]L[2Nal]PD [SEQ ID NO: 54] showed an IC50 of 14600 nM. Against the preceding molecule, the IC50 is about 59-fold higher.
